Values quoted from earlier work, collected in article PMC5274714.

Target: human serum albumin (Homo sapiens) (UniProt P02768)
Test: SPR

protein G ABD3 (from UniProt P19909)
Kd: 4 nM
